What was measured:
Details in all cases: both partners purified
[1] = molecular target: T1, recombinant human PCSK9 with 6x His tag (proprotein convertase subtilisin/kexin type-9) (human, UniProt Q8NBP7 31-692); assay: BLI; BLItz system; PCSK9-His (hPCSK9, 500 nM, 120 s loading) immobilised on an anti-Penta-HIS sensor; association 120 s, dissociation 120 s; sensorgrams fit globally to a 1:1 binding model
T1 construct: proprotein convertase subtilisin/kexin type-9 (PCSK9), human, recombinant; written here as one chain; also called rhPCSK9-His; PCSK9-His

[2] = molecular target: T2, recombinant human PKCδ (protein kinase C delta) (human, UniProt Q05655 1-676); assay: BLI; BLItz system; CAP1-mFc immobilised on an anti-mouse IgG Fc (AMC) sensor; Syk or PKCδ in the association step (120 s), dissociation 120 s; global 1:1 binding model
T2 construct: protein kinase C delta (PKCδ), human, recombinant; also called rhPKCδ; source: bought: Abcam (ab60844)

[3] = molecular target: T3, recombinant human Syk (spleen tyrosine kinase) (human, UniProt P43405 1-635); assay: as above
T3 construct: spleen tyrosine kinase (Syk), human, recombinant; also called rhSyk; source: bought: Abcam (ab60886)

T2 sequence (Q05655 whole entry, stated change not applied): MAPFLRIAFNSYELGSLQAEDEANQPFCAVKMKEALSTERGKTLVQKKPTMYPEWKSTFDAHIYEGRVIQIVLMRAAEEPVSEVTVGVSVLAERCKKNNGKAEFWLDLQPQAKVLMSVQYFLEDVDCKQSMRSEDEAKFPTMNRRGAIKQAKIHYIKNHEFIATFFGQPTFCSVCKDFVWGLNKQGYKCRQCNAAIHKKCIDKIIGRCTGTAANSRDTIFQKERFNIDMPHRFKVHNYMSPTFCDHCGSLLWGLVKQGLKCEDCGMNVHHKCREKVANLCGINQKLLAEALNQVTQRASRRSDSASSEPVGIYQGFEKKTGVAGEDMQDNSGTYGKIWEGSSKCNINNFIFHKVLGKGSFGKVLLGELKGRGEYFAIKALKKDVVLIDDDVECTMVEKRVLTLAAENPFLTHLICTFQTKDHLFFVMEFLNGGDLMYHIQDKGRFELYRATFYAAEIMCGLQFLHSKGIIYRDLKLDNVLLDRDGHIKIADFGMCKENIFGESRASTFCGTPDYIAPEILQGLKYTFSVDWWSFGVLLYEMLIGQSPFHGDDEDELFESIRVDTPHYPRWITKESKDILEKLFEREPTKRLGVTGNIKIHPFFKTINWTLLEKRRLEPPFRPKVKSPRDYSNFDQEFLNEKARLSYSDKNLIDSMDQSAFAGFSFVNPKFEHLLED

| Binder | Kd [1] [nM] | Kd [2] [nM] | Kd [3] [nM] |
| --- | --- | --- | --- |
| recombinant human CAP1 (adenylyl cyclase-associated protein 1) (natural protein, UniProt Q01518 1-475, looked up, adenylyl cyclase-associated protein 1 (CAP1), human, recombinant; also called rhCAP1; hCAP1; source: bought: Abnova (H00010487-P01)) MADMQNLVERLERAVGRLEAVSHTSDMHRGYADSPSKAGAAPYVQAFDSLLAGPVAEYLKISKEIGGDVQKHAEMVHTGLKLERALLVTASQCQQPAENKLSDLLAPISEQIKEVITFREKNRGSKLFNHLSAVSESIQALGWVAMAPKPGPYVKEMNDAAMFYTNRVLKEYKDVDKKHVDWVKAYLSIWTELQAYIKEFHTTGLAWSKTGPVAKELSGLPSGPSAGSCPPPPPPCPPPPPVSTISCSYESASRSSLFAQINQGESITHALKHVSDDMKTHKNPALKAQSGPVRSGPKPFSAPKPQTSPSPKRATKKEPAVLELEGKKWRVENQENVSNLVIEDTELKQVAYIYKCVNTTLQIKGKINSITVDNCKKLGLVFDDVVGIVEIINSKDVKVQVMGKVPTISINKTDGCHAYLSKNSLDCEIVSAKSSEMNVLIPTEGGDFNEFPVPEQFKTLWNGQKLVTTVTEIAG | 32 |  |  |
| human CAP1 whose carboxyl-terminal end was conjugated with the Fc region of mouse immunoglobulin (Fc fusion, UniProt Q01518 1-475, looked up, adenylyl cyclase-associated protein 1 (CAP1), human; also called CAP1-mFc; hCAP1-mFc; source: Expi293F, transfected, purified to homogeneity; not shown: Fc (mouse immunoglobulin), C-terminal, kept) MADMQNLVERLERAVGRLEAVSHTSDMHRGYADSPSKAGAAPYVQAFDSLLAGPVAEYLKISKEIGGDVQKHAEMVHTGLKLERALLVTASQCQQPAENKLSDLLAPISEQIKEVITFREKNRGSKLFNHLSAVSESIQALGWVAMAPKPGPYVKEMNDAAMFYTNRVLKEYKDVDKKHVDWVKAYLSIWTELQAYIKEFHTTGLAWSKTGPVAKELSGLPSGPSAGSCPPPPPPCPPPPPVSTISCSYESASRSSLFAQINQGESITHALKHVSDDMKTHKNPALKAQSGPVRSGPKPFSAPKPQTSPSPKRATKKEPAVLELEGKKWRVENQENVSNLVIEDTELKQVAYIYKCVNTTLQIKGKINSITVDNCKKLGLVFDDVVGIVEIINSKDVKVQVMGKVPTISINKTDGCHAYLSKNSLDCEIVSAKSSEMNVLIPTEGGDFNEFPVPEQFKTLWNGQKLVTTVTEIAG |  | 322 | 5.96 |

Source: PMC10981688, “PCSK9 stimulates Syk, PKCδ, and NF-κB, leading to atherosclerosis progression independently of LDL receptor” (Nature Communications, 2024)
